Assay results as given in patent US20130137180.

Key:
[1] = test system: AAVS1 ZFN left (synthetic); assay: cell_activity; details: pair with right ZFN; A549 clones positive for HindIII site (308 of 933); none with oligo alone
[2] = test system: AAVS1 ZFN right (synthetic); assay: cell_activity; details: pair with left ZFN; A549 clones positive for HindIII site (308 of 933); none with oligo alone

Sequence | activity [1] [%] | activity [2] [%]
ACCCCACAGTGG (double strand) [AAVS1 left ZFN binding site] | 33 | 
TAGGGACAGGAT (double strand) [AAVS1 right ZFN binding site] |  | 33
